This data set relates to MS2 coat protein. The data set is described as follows: apparent KD of MS2 coat protein; higher = weaker reporter binding. The conditions noted are these: Eterna round: R107. The procedure:
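RNA-MaP round R107: designed RNA switches with theophylline, tryptophan, arginine or FMN aptamers are transcribed on-chip within common flanks. They are titrated with SNAP-549-labelled MS2 coat protein in RNA-MaP buffer (100 mM Tris pH 7.5, 80 mM KCl, 4 mM MgCl2), without ligand or with the indicated ligand. Median apparent KD per design.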

[1] abbreviates: input ligand: theophylline 20 uM.
[2] abbreviates: input ligand: tryptophan 2.4 mM.
The mark [3] stands for this setting: input ligand: theophylline 2 mM.

For “AAUGAUGCGAUCUACAGUCGAGGAUUCGAUACCAGCAACGGGCGUUGCCCUUGGCAGCGAGCUACAUGAGGAUCACCCAUGUUAC [theeternabot_exclusion_MS2_Theo_A_45]”, the “apparent KD of MS2 coat protein” value (input ligand: arginine 13.2 mM) worked out at 16.8 nM, the “apparent KD of MS2 coat protein” value under setting [1] came to 25.5 nM and the “apparent KD of MS2 coat protein” value under setting [2] is 19.4 nM.

As to “AAUGUAUGGCACAUGAGGAUCACCCAUGUGCGAGGACCGGUACGGCCGCCACUCGGUCGGUGGUUAAUGAAGCUAUACAUUAAUG [XTryp A #13]”, the “apparent KD of MS2 coat protein” value runs as follows: (input ligand: arginine 13.2 mM) 26.8 nM; under setting [1], 53.5 nM; under setting [3], 55.1 nM.

Take “AAUUCAAGGUUCUUGAUGUAUUAUAUAUUUCGAGGACCGGUACGGCCGCCACUCGUUAAUUACAUGAGGAUCACCCAUGUUAGCU [JR_ExcTryptoA_Sub010]”: the “apparent KD of MS2 coat protein” value by setting is: (input ligand: arginine 13.2 mM) 14.2 nM; under setting [1], 16 nM; under setting [3], 17.2 nM.

As for “AAUUCAAUUUUCUUGAUGUAUUAUAUAUUUCGAGGACCGGUACGGCCGCCACUCGUUAAUUACAUGAGGAUCACCCAUGUUAGCU [JR_ExcTryptoA_Sub009]”, the “apparent KD of MS2 coat protein” value is, setting by setting: (input ligand: arginine 13.2 mM) 13.6 nM; under setting [1], 17.5 nM; under setting [3], 16.2 nM.

With “AAUUUAAACGGAAGGAGCGUCACUUAAUAUCAACAUGAGGAUCACCCAUGUACGGGUUGUAGACAGGUAGGUCGCCGUCAUUUGA [#15 Same State - Arginine B]”, the “apparent KD of MS2 coat protein” value is, setting by setting: (input ligand: arginine 13.2 mM) 49.4 nM; (input ligand: none) 47.9 nM; under setting [1], 74.5 nM; under setting [3], 64.5 nM; under setting [2], 53.5 nM.

For the sequence “ACACCGAAAGGUGCAUUUACCUUAUCAGAUACCAGACUUUACGUUGUCCCUUGGCAGCUGUAUCACAUGAGGAUCACCCAUGUUG [JR_SSTheophyA_Sub011]”, the “apparent KD of MS2 coat protein” value stood at 19.3 nM (input ligand: arginine 13.2 mM), 18.8 nM under setting [1] and 16.6 nM under setting [2].

Regarding “ACACGAAGCUGAAGGAGCGUGGUAUAAAUUUUUACAUGAGGAUCACCCAUGUUUCAUCAAUCACAGGUAGGUCGCAGAUGCGUGA [JR_SSArginiB_Sub014]”, the “apparent KD of MS2 coat protein” value was found to be 19.6 nM (input ligand: arginine 13.2 mM); 14.1 nM (input ligand: none); 18.6 nM under setting [1]; 20.2 nM under setting [3]; 15.9 nM under setting [2].

For “ACAUCCAGGUUAAUCGUGGGCAUGGUCGAUACCAGUAUUUUAAUCUACCCUUGGCAGCGACAUGAGGAUCACCCAUGUGCGAUGA [XTheo A #13]”, the “apparent KD of MS2 coat protein” value came out at 20.1 nM (input ligand: arginine 13.2 mM), 33.7 nM under setting [1] and 25.8 nM under setting [2].

For the sequence “ACAUGAGGAUCACCCAUGUAAUAAGGAGAAGGAGCGCGUAAGGACGCAGGUAGGUCGCUCGUGGUCCGGCCGCAAGGCCGGACCA [#1 Same State - Arginine A Attempt #8 (HarryS)]”, the “apparent KD of MS2 coat protein” value was 4.83 nM (input ligand: arginine 13.2 mM); 11.2 nM (input ligand: none); 15.4 nM under setting [1]; 8.04 nM under setting [3]; 9.31 nM under setting [2].

In the case of “ACAUGAGGAUCACCCAUGUACAUAAGGGAAGGAGCGCGGUGAAACGCAGGUAGGUCGCCCAUAAUAACAAACAUUAAAUUCAUGU [LeftA2]”, the “apparent KD of MS2 coat protein” value reads like this: (input ligand: arginine 13.2 mM) 28 nM; (input ligand: none) 14.3 nM; under setting [1], 18.6 nM; under setting [3], 17.9 nM; under setting [2], 16.6 nM.

Turning to “ACAUGAGGAUCACCCAUGUACAUGAGGGAAGGAGCGGUACAUGAGCCAGGUAGGUCGCCCAUGAGCAUCAGGCAUGUACAUCAGC [kokmmullin]”, the “apparent KD of MS2 coat protein” value came out at 47.6 nM (input ligand: arginine 13.2 mM); 99.5 nM (input ligand: none); 97.3 nM under setting [1]; 105 nM under setting [3]; 56.6 nM under setting [2].

Consider “ACAUGAGGAUCACCCAUGUAUUACCGGGAAGGAGCGGCCGCAAGGCCAGGUAGGUCGCUCGGUGUCGUGCUGUAAAGCACGACAA [#1 Same State - Arginine A Attempt #29 (HarryS)]”, for which the “apparent KD of MS2 coat protein” value reads like this: (input ligand: arginine 13.2 mM) 11.9 nM; (input ligand: none) 10.2 nM; under setting [1], 16.7 nM; under setting [3], 11.5 nM; under setting [2], 9.61 nM.

As for “ACAUGAGGAUCACCCAUGUAUUCAUCAGAAGGAGCGUGGAAUAACACAGGUAGGUCGCUGAUUAUUUGUUAAAUAAAUUCGUGUA [JR_Nu_SSArginiA_Sub023]”, the “apparent KD of MS2 coat protein” value runs as follows: (input ligand: arginine 13.2 mM) 19.3 nM; (input ligand: none) 16.1 nM; under setting [1], 19.1 nM; under setting [3], 16 nM; under setting [2], 16.4 nM.

In the case of “ACAUGAGGAUCACCCAUGUCAAGGCACGAUACCAGCUGAUCCGGUGGCCCUUGGCAGCGUCACGUUUGGUCCCGCGGAUGACACG [p'pmullin]”, the “apparent KD of MS2 coat protein” value is 32.1 nM (input ligand: arginine 13.2 mM), 139 nM under setting [1] and 106 nM under setting [2].

Regarding “ACAUGAGGAUCACCCAUGUUAAGCAGGGUGCGAGGACCGGUACGGCCGCCACUCGGACAUUAUUACGAGUGAAUGGUAACGAUGU [#14 Exclusion Tryptophan A]”, the “apparent KD of MS2 coat protein” value by setting is: (input ligand: arginine 13.2 mM) 23.3 nM; (input ligand: none) 18.2 nM; under setting [1], 29.8 nM; under setting [3], 24.5 nM; under setting [2], 21.7 nM.

Regarding “ACAUGAGGAUCACCCAUGUUCCUCAUUGAUACCAGUGAAUUUAGACGCCCUUGGCAGCGAGUUUUUUUAGAAGAAGUUUUUUUUU [6.F]”, the “apparent KD of MS2 coat protein” value was determined as 158 nM (input ligand: arginine 13.2 mM), 659 nM under setting [1] and 929 nM under setting [2].

Consider “ACAUGAGGAUCACCCAUGUUCCUCAUUGAUACCAGUGAAUUUAGACGCCCUUGGCAGCGAGUUUUUUUAUAAGAAGUUUUUUUUU [6.G]”, for which the “apparent KD of MS2 coat protein” value is, setting by setting: (input ligand: arginine 13.2 mM) 280 nM; under setting [1], 659 nM; under setting [2], 900 nM.

As to “ACAUGAGGAUGGGAUACCAGAUACAUGAGGAUCACCCAUACAUGAGGAUCACCCAUGUCCGUCCCUUGGCAGCCCAACAUGAGGA [Exclusion Theophylline B]”, the “apparent KD of MS2 coat protein” value reads like this: (input ligand: arginine 13.2 mM) 77.4 nM; under setting [1], 153 nM; under setting [2], 150 nM.

The values are drawn from the supplement of paper PMC9170038.
